In the supplement of paper PMC9112550, “Optimization of the antimicrobial peptide Bac7 by deep mutational scanning” (BMC Biology, 2022):

Tested on: Escherichia coli TOP10
Test: shrunken log2 fold change of peptide-encoding DNA abundance (4.5 h post-induction vs induction); higher = less antimicrobial activity (less host growth inhibition)
Details: time post-induction: 4.5 h; library: site-saturation at positions 5, 18, 19, 20
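Also: peptides expressed intracellularly from a pBAD plasmid library in pooled LB shake-flask culture, induced with 0.3% L-arabinose, DNA abundance read by NGS, three biological replicates, DESeq2 with apeglm shrinkage.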

Sequence | shrunken log2 fold change
RRIRKRPPRLPRPRPRPSIPPRP | -1.13
RRIRNRPPRLPRPRPRPSYVPRP | -0.0484
RRIRTRPPRLPRPRPRPLVPPRP | 0.193
RRIRNRPPRLPRPRPRPKYDPRP | -0.624
RRIRQRPPRLPRPRPRPDMKPRP | 0.26
RRIRMRPPRLPRPRPRPYGMPRP | 0.162
RRIRCRPPRLPRPRPRPYKLPRP | -0.898
RRIRLRPPRLPRPRPRPDYLPRP | -0.114
RRIRKRPPRLPRPRPRPCSRPRP | 0.015
RRIRRRPPRLPRPRPRPKGHPRP | 0.127
RRIRQRPPRLPRPRPRPHNNPRP | -0.748
RRIRMRPPRLPRPRPRPNWYPRP | -0.0601
RRIRNRPPRLPRPRPRPWGYPRP | -0.123
RRIRWRPPRLPRPRPRPVMRPRP | 0.0188
RRIRDRPPRLPRPRPRPNSVPRP | -0.0426
RRIRLRPPRLPRPRPRPNKPPRP | -0.0372
RRIRPRPPRLPRPRPRPVNYPRP | -0.335
RRIRCRPPRLPRPRPRPPYEPRP | -0.306
RRIRHRPPRLPRPRPRPGHFPRP | 0.0387
RRIRARPPRLPRPRPRPNQNPRP | 0.0844
RRIRVRPPRLPRPRPRPVRFPRP | 0.391
RRIRCRPPRLPRPRPRPYMNPRP | -0.99
RRIRWRPPRLPRPRPRPERTPRP | 1.08
RRIRQRPPRLPRPRPRPWTHPRP | 0.00902
RRIRFRPPRLPRPRPRPTHSPRP | 0.207

Sequence | shrunken log2 fold change
RRIRIRPPRLPRPRPRPMPLPRP | 0.124
RRIRNRPPRLPRPRPRPWRPPRP | 0.337
RRIRFRPPRLPRPRPRPFMRPRP | 0.559
RRIRNRPPRLPRPRPRPIECPRP | 0.0138
RRIRVRPPRLPRPRPRPTMNPRP | -0.353
RRIRARPPRLPRPRPRPLVFPRP | 0.397
RRIRFRPPRLPRPRPRPCWQPRP | 3.76
RRIRTRPPRLPRPRPRPFKRPRP | 0.122
RRIRHRPPRLPRPRPRPNKNPRP | -0.717
RRIRERPPRLPRPRPRPYTNPRP | -0.172
RRIRVRPPRLPRPRPRPTIMPRP | -0.411
RRIRCRPPRLPRPRPRPIDCPRP | -0.128
RRIRLRPPRLPRPRPRPMHIPRP | 0.0952
RRIRKRPPRLPRPRPRPNSKPRP | 0.0385
RRIRNRPPRLPRPRPRPTHQPRP | 0.194
RRIRIRPPRLPRPRPRPDMVPRP | 0.0032
RRIRTRPPRLPRPRPRPWWAPRP | -0.134
RRIRPRPPRLPRPRPRPTPKPRP | 0.528
RRIRTRPPRLPRPRPRPYARPRP | -0.000715
RRIRIRPPRLPRPRPRPGFWPRP | 0.0561
RRIRWRPPRLPRPRPRPVWAPRP | 0.263
RRIRGRPPRLPRPRPRPAESPRP | 0.764
RRIRLRPPRLPRPRPRPSSMPRP | -0.179
RRIRSRPPRLPRPRPRPDDEPRP | 0.0222
RRIRFRPPRLPRPRPRPFPKPRP | 0.00183

Sequence | shrunken log2 fold change
RRIRIRPPRLPRPRPRPDPHPRP | -0.314
RRIRCRPPRLPRPRPRPYRDPRP | -0.16
RRIRKRPPRLPRPRPRPDNSPRP | -0.00848
RRIRRRPPRLPRPRPRPYSIPRP | 0.0088
RRIRNRPPRLPRPRPRPENIPRP | -0.435
RRIRQRPPRLPRPRPRPDECPRP | 0.0568
RRIRKRPPRLPRPRPRPALAPRP | 0.885
RRIRPRPPRLPRPRPRPTERPRP | 0.649
RRIRVRPPRLPRPRPRPNWCPRP | -0.00931
RRIRARPPRLPRPRPRPQWTPRP | 0.164
RRIRRRPPRLPRPRPRPDKKPRP | 0.0135
RRIRYRPPRLPRPRPRPCLAPRP | -0.838
RRIRGRPPRLPRPRPRPRRVPRP | 0.485
RRIRERPPRLPRPRPRPVSKPRP | -0.201
RRIRTRPPRLPRPRPRPMLCPRP | -0.00838
RRIRLRPPRLPRPRPRPQGMPRP | -0.0379
RRIRLRPPRLPRPRPRPVFWPRP | 0.247
RRIRTRPPRLPRPRPRPMSWPRP | 0.0201
RRIRNRPPRLPRPRPRPRMVPRP | -0.289
RRIRARPPRLPRPRPRPFEFPRP | 0.0786
RRIRWRPPRLPRPRPRPHRAPRP | -0.0058
RRIRVRPPRLPRPRPRPRDDPRP | -0.104
RRIRIRPPRLPRPRPRPPMIPRP | -0.112
RRIRKRPPRLPRPRPRPNSFPRP | -0.234
RRIRERPPRLPRPRPRPFIFPRP | -0.476

Sequence | shrunken log2 fold change
RRIRSRPPRLPRPRPRPLIGPRP | -0.118
RRIRSRPPRLPRPRPRPMKYPRP | -0.278
RRIRFRPPRLPRPRPRPNHVPRP | -0.276
RRIRYRPPRLPRPRPRPDQWPRP | -0.103
RRIRQRPPRLPRPRPRPTIIPRP | -0.244
RRIRQRPPRLPRPRPRPAQKPRP | -0.0027
RRIRKRPPRLPRPRPRPTEHPRP | 0.279
RRIRIRPPRLPRPRPRPTTNPRP | -0.463
RRIRPRPPRLPRPRPRPPIYPRP | 0.0772
RRIRGRPPRLPRPRPRPWHAPRP | 0.281
RRIRQRPPRLPRPRPRPQMSPRP | -0.0844
RRIRSRPPRLPRPRPRPPQKPRP | 0.463
RRIRLRPPRLPRPRPRPKLIPRP | -0.219
RRIRQRPPRLPRPRPRPDKDPRP | -0.0597
RRIRIRPPRLPRPRPRPNVEPRP | -0.325
RRIRWRPPRLPRPRPRPSTRPRP | 0.00128
RRIRERPPRLPRPRPRPSYLPRP | -1.2
RRIRTRPPRLPRPRPRPMQDPRP | 0.118
RRIRGRPPRLPRPRPRPQKPPRP | 0.0894
RRIRGRPPRLPRPRPRPEDEPRP | 0.0631
RRIRERPPRLPRPRPRPEERPRP | 0.0375
RRIRCRPPRLPRPRPRPHHYPRP | -0.685
RRIRNRPPRLPRPRPRPIMRPRP | 0.00621
RRIRHRPPRLPRPRPRPDAYPRP | 0.027
RRIRIRPPRLPRPRPRPWWSPRP | -0.0718

Sequence | shrunken log2 fold change
RRIRFRPPRLPRPRPRPRELPRP | 0.263
RRIRARPPRLPRPRPRPLWCPRP | -0.264
RRIRGRPPRLPRPRPRPRKSPRP | 0.326
RRIRTRPPRLPRPRPRPKFIPRP | -0.175
RRIRCRPPRLPRPRPRPYFSPRP | -0.135
RRIRKRPPRLPRPRPRPHYDPRP | 0.0324
RRIRWRPPRLPRPRPRPNADPRP | 0.466
RRIRMRPPRLPRPRPRPENGPRP | 0.0676
RRIRRRPPRLPRPRPRPEHEPRP | 0.0952
RRIRLRPPRLPRPRPRPVWKPRP | -0.0133
RRIRRRPPRLPRPRPRPIQIPRP | -0.00118
RRIRQRPPRLPRPRPRPNGFPRP | -0.258
RRIRLRPPRLPRPRPRPRVCPRP | 0.0558
RRIRIRPPRLPRPRPRPLYCPRP | -0.744
RRIRKRPPRLPRPRPRPLCRPRP | 0.392
RRIRARPPRLPRPRPRPQLAPRP | 0.766
RRIRSRPPRLPRPRPRPQWNPRP | -0.259
RRIRVRPPRLPRPRPRPNCVPRP | -0.0661
RRIRKRPPRLPRPRPRPQVPPRP | 0.325
RRIRVRPPRLPRPRPRPSDQPRP | -0.669
RRIRARPPRLPRPRPRPIGNPRP | 0.00902
RRIRWRPPRLPRPRPRPQSQPRP | 0.00151
RRIRHRPPRLPRPRPRPTSYPRP | -0.178
RRIRVRPPRLPRPRPRPMANPRP | 0.146
RRIRPRPPRLPRPRPRPLMRPRP | 0.761

Sequence | shrunken log2 fold change
RRIRMRPPRLPRPRPRPRYVPRP | -0.18
RRIRMRPPRLPRPRPRPPASPRP | 1.65
RRIRCRPPRLPRPRPRPVFFPRP | -0.0521
RRIRNRPPRLPRPRPRPVKWPRP | -0.286
RRIRSRPPRLPRPRPRPANQPRP | -0.116
RRIRHRPPRLPRPRPRPHKKPRP | -0.0741
RRIRLRPPRLPRPRPRPEAWPRP | 0.0169
RRIRMRPPRLPRPRPRPKTLPRP | 0.687
RRIRDRPPRLPRPRPRPTQQPRP | 0.248
RRIRNRPPRLPRPRPRPSWEPRP | -0.32
RRIRMRPPRLPRPRPRPQGNPRP | -0.0324
RRIRDRPPRLPRPRPRPPCGPRP | 0.411
RRIRCRPPRLPRPRPRPFCKPRP | -0.0692
RRIRTRPPRLPRPRPRPNYGPRP | -0.363
RRIRERPPRLPRPRPRPTADPRP | 0.0264
RRIRTRPPRLPRPRPRPCEYPRP | -0.0254
RRIRYRPPRLPRPRPRPDSHPRP | -0.782
RRIRCRPPRLPRPRPRPNHRPRP | -0.233
RRIRHRPPRLPRPRPRPQNFPRP | -0.522
RRIRPRPPRLPRPRPRPICFPRP | -0.189
RRIRMRPPRLPRPRPRPSDPPRP | -0.0636
RRIRRRPPRLPRPRPRPYHYPRP | -0.717
RRIRSRPPRLPRPRPRPKWTPRP | -0.0493
RRIRCRPPRLPRPRPRPGKCPRP | -0.173
RRIRMRPPRLPRPRPRPMEEPRP | 2.45
